The numbers were not newly measured in paper PMC4188015, which cites them from elsewhere.

The target of data set [1] is Human insulin (Homo sapiens) (UniProt P01308). Nature of the data set: ITC.
In data set [2] the target is insulin receptor isoform A (Homo sapiens) (UniProt P06213).
The target in data set [3] is insulin receptor site 2 (Homo sapiens) (UniProt P06213).
In data set [4] the target is insulin receptor site 1 (Homo sapiens) (UniProt P06213).

pKd: −log10 of the molar value.

Consider Human insulin (from UniProt P01308), for which the pKd in data set [1] is 5.06.

On to IGF-II (from UniProt P01344), for which the pKd in data set [2] was 8.40.

For the substance insulin (from UniProt P01308), the negative-log Kd (pKd) in data set [3] was 6.40; in data set [4], 8.19.
